Numbered stars: 1 amine (or outer) side, 2 acyl side, 3 side chain; on linkers, the order of the positions; unused ones are H or OH. Bridge positions count the residues as written; N and C are the ends. Side chains are listed from the residue outwards. Ends that are not written are not given here. * marks the point of attachment. C20 diacid = O=C(O)CCCCCCCCCCCCCCCCCCC(=O)*; γGlu = O=C(O)[C@H](CCC(=O)[*:2])N[*:1]; AEEA = NCCOCCOCC(=O)O
T1: human amylin receptor (amylin 3(a) receptor: human calcitonin receptor co-expressed with RAMP-3) (human, UniProt P30988 25-474; O60896 24-148, limits assumed)
T1 sequence (looked up) 1: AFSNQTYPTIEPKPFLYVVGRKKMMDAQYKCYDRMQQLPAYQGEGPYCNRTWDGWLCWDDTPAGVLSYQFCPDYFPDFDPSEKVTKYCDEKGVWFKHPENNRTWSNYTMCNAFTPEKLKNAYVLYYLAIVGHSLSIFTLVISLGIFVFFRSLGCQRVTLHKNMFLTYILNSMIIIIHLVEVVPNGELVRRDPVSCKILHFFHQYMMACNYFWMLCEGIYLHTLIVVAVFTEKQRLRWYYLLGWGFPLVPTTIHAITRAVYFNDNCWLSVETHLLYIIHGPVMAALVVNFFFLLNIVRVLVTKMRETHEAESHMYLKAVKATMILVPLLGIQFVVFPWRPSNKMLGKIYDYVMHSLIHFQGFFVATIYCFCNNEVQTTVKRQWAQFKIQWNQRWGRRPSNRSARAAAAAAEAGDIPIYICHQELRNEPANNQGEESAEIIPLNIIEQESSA
T1 sequence (looked up) 2: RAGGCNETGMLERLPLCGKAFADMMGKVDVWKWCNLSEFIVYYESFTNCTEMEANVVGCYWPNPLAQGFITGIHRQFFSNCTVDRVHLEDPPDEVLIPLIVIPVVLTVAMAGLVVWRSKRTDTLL

T2: human calcitonin receptor (human, UniProt P30988 25-474)
T2 sequence (looked up): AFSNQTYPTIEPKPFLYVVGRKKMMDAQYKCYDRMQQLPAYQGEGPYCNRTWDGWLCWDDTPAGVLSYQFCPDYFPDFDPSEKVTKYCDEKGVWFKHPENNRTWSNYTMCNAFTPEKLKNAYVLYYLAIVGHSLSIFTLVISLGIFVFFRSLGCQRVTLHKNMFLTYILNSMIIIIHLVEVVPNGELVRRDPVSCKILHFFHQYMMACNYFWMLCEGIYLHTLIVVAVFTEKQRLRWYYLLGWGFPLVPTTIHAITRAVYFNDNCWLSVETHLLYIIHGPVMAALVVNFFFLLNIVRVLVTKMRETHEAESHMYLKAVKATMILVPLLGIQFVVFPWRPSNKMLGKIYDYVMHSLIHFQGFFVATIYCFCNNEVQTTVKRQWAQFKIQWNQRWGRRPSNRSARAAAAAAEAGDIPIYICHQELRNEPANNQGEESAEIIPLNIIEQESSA


Legend:
[1] = target: T1, human amylin receptor (amylin 3(a) …); test: cell-based or functional assay
[2] = target: T2, human calcitonin receptor; test: cell-based or functional assay

Binder	hAmylin-R funct. EC50 [1] [nM]	hCTR funct. EC50 [2] [nM]	Ratio hCT/hAmylin funct. [1]
K([AEEA-γGlu-C20 diacid])CNTATCATQRLAHFLRHSSPNFGAIPSSTPVGSNTY-NH2 (disulfide 2-7; N-terminus assumed; SMILES CC[C@H](C)[C@H](NC(=O)[C@H](C)NC(=O)CNC(=O)[C@H](Cc1ccccc1)NC(=O)[C@H](CC(N)=O)NC(=O)[C@@H]1CCCN1C(=O)[C@H](CO)NC(=O)[C@H](CO)NC(=O)[C@H](Cc1c[nH]cn1)NC(=O)[C@H](CCCNC(=N)N)NC(=O)[C@H](CC(C)C)NC(=O)[C@H](Cc1ccccc1)NC(=O)[C@H](Cc1c[nH]cn1)NC(=O)[C@H](C)NC(=O)[C@H](CC(C)C)NC(=O)[C@H](CCCNC(=N)N)NC(=O)[C@H](CCC(N)=O)NC(=O)[C@@H](NC(=O)[C@H](C)NC(=O)[C@@H]1CSSC[C@H](NC(=O)[C@@H](N)CCCCNC(=O)COCCOCCNC(=O)CC[C@H](NC(=O)CCCCCCCCCCCCCCCCCCC(=O)O)C(=O)O)C(=O)N[C@@H](CC(N)=O)C(=O)N[C@@H]([C@@H](C)O)C(=O)N[C@@H](C)C(=O)N[C@@H]([C@@H](C)O)C(=O)N1)[C@@H](C)O)C(=O)N1CCC[C@H]1C(=O)N[C@@H](CO)C(=O)N[C@@H](CO)C(=O)N[C@H](C(=O)N1CCC[C@H]1C(=O)N[C@H](C(=O)NCC(=O)N[C@@H](CO)C(=O)N[C@@H](CC(N)=O)C(=O)N[C@H](C(=O)N[C@@H](Cc1ccc(O)cc1)C(N)=O)[C@@H](C)O)C(C)C)[C@@H](C)O, also called compound 61)	0.051	0.554	–
K([AEEA-γGlu-C20 diacid])CNTATCATQRLASFLRHSSPNFGAIPSSTPVGSNTY-NH2 (disulfide 2-7; N-terminus assumed; SMILES CC[C@H](C)[C@H](NC(=O)[C@H](C)NC(=O)CNC(=O)[C@H](Cc1ccccc1)NC(=O)[C@H](CC(N)=O)NC(=O)[C@@H]1CCCN1C(=O)[C@H](CO)NC(=O)[C@H](CO)NC(=O)[C@H](Cc1c[nH]cn1)NC(=O)[C@H](CCCNC(=N)N)NC(=O)[C@H](CC(C)C)NC(=O)[C@H](Cc1ccccc1)NC(=O)[C@H](CO)NC(=O)[C@H](C)NC(=O)[C@H](CC(C)C)NC(=O)[C@H](CCCNC(=N)N)NC(=O)[C@H](CCC(N)=O)NC(=O)[C@@H](NC(=O)[C@H](C)NC(=O)[C@@H]1CSSC[C@H](NC(=O)[C@@H](N)CCCCNC(=O)COCCOCCNC(=O)CC[C@H](NC(=O)CCCCCCCCCCCCCCCCCCC(=O)O)C(=O)O)C(=O)N[C@@H](CC(N)=O)C(=O)N[C@@H]([C@@H](C)O)C(=O)N[C@@H](C)C(=O)N[C@@H]([C@@H](C)O)C(=O)N1)[C@@H](C)O)C(=O)N1CCC[C@H]1C(=O)N[C@@H](CO)C(=O)N[C@@H](CO)C(=O)N[C@H](C(=O)N1CCC[C@H]1C(=O)N[C@H](C(=O)NCC(=O)N[C@@H](CO)C(=O)N[C@@H](CC(N)=O)C(=O)N[C@H](C(=O)N[C@@H](Cc1ccc(O)cc1)C(N)=O)[C@@H](C)O)C(C)C)[C@@H](C)O, also called compound 73)	0.085	0.961	–
K([AEEA-γGlu-C20 diacid])CNTATCATQRLAHFLRHSSPNFGAIPSSTNVGPNTY-NH2 (disulfide 2-7; N-terminus assumed; SMILES CC[C@H](C)[C@H](NC(=O)[C@H](C)NC(=O)CNC(=O)[C@H](Cc1ccccc1)NC(=O)[C@H](CC(N)=O)NC(=O)[C@@H]1CCCN1C(=O)[C@H](CO)NC(=O)[C@H](CO)NC(=O)[C@H](Cc1c[nH]cn1)NC(=O)[C@H](CCCNC(=N)N)NC(=O)[C@H](CC(C)C)NC(=O)[C@H](Cc1ccccc1)NC(=O)[C@H](Cc1c[nH]cn1)NC(=O)[C@H](C)NC(=O)[C@H](CC(C)C)NC(=O)[C@H](CCCNC(=N)N)NC(=O)[C@H](CCC(N)=O)NC(=O)[C@@H](NC(=O)[C@H](C)NC(=O)[C@@H]1CSSC[C@H](NC(=O)[C@@H](N)CCCCNC(=O)COCCOCCNC(=O)CC[C@H](NC(=O)CCCCCCCCCCCCCCCCCCC(=O)O)C(=O)O)C(=O)N[C@@H](CC(N)=O)C(=O)N[C@@H]([C@@H](C)O)C(=O)N[C@@H](C)C(=O)N[C@@H]([C@@H](C)O)C(=O)N1)[C@@H](C)O)C(=O)N1CCC[C@H]1C(=O)N[C@@H](CO)C(=O)N[C@@H](CO)C(=O)N[C@H](C(=O)N[C@@H](CC(N)=O)C(=O)N[C@H](C(=O)NCC(=O)N1CCC[C@H]1C(=O)N[C@@H](CC(N)=O)C(=O)N[C@H](C(=O)N[C@@H](Cc1ccc(O)cc1)C(N)=O)[C@@H](C)O)C(C)C)[C@@H](C)O, also called compound 68)	0.054	0.932	–
K([AEEA-γGlu-C20 diacid])CNTATCATQRLATFLRHSSPNFGAIPSSTPVGSNTY-NH2 (disulfide 2-7; N-terminus assumed; SMILES CC[C@H](C)[C@H](NC(=O)[C@H](C)NC(=O)CNC(=O)[C@H](Cc1ccccc1)NC(=O)[C@H](CC(N)=O)NC(=O)[C@@H]1CCCN1C(=O)[C@H](CO)NC(=O)[C@H](CO)NC(=O)[C@H](Cc1c[nH]cn1)NC(=O)[C@H](CCCNC(=N)N)NC(=O)[C@H](CC(C)C)NC(=O)[C@H](Cc1ccccc1)NC(=O)[C@@H](NC(=O)[C@H](C)NC(=O)[C@H](CC(C)C)NC(=O)[C@H](CCCNC(=N)N)NC(=O)[C@H](CCC(N)=O)NC(=O)[C@@H](NC(=O)[C@H](C)NC(=O)[C@@H]1CSSC[C@H](NC(=O)[C@@H](N)CCCCNC(=O)COCCOCCNC(=O)CC[C@H](NC(=O)CCCCCCCCCCCCCCCCCCC(=O)O)C(=O)O)C(=O)N[C@@H](CC(N)=O)C(=O)N[C@@H]([C@@H](C)O)C(=O)N[C@@H](C)C(=O)N[C@@H]([C@@H](C)O)C(=O)N1)[C@@H](C)O)[C@@H](C)O)C(=O)N1CCC[C@H]1C(=O)N[C@@H](CO)C(=O)N[C@@H](CO)C(=O)N[C@H](C(=O)N1CCC[C@H]1C(=O)N[C@H](C(=O)NCC(=O)N[C@@H](CO)C(=O)N[C@@H](CC(N)=O)C(=O)N[C@H](C(=O)N[C@@H](Cc1ccc(O)cc1)C(N)=O)[C@@H](C)O)C(C)C)[C@@H](C)O, also called compound 75)	0.296	9.07	–
K([AEEA-γGlu-C20 diacid])CNTATCATQRLAKFLRHSSPNFGAIPSSTPVGSNTY-NH2 (disulfide 2-7; N-terminus assumed; SMILES CC[C@H](C)[C@H](NC(=O)[C@H](C)NC(=O)CNC(=O)[C@H](Cc1ccccc1)NC(=O)[C@H](CC(N)=O)NC(=O)[C@@H]1CCCN1C(=O)[C@H](CO)NC(=O)[C@H](CO)NC(=O)[C@H](Cc1c[nH]cn1)NC(=O)[C@H](CCCNC(=N)N)NC(=O)[C@H](CC(C)C)NC(=O)[C@H](Cc1ccccc1)NC(=O)[C@H](CCCCN)NC(=O)[C@H](C)NC(=O)[C@H](CC(C)C)NC(=O)[C@H](CCCNC(=N)N)NC(=O)[C@H](CCC(N)=O)NC(=O)[C@@H](NC(=O)[C@H](C)NC(=O)[C@@H]1CSSC[C@H](NC(=O)[C@@H](N)CCCCNC(=O)COCCOCCNC(=O)CC[C@H](NC(=O)CCCCCCCCCCCCCCCCCCC(=O)O)C(=O)O)C(=O)N[C@@H](CC(N)=O)C(=O)N[C@@H]([C@@H](C)O)C(=O)N[C@@H](C)C(=O)N[C@@H]([C@@H](C)O)C(=O)N1)[C@@H](C)O)C(=O)N1CCC[C@H]1C(=O)N[C@@H](CO)C(=O)N[C@@H](CO)C(=O)N[C@H](C(=O)N1CCC[C@H]1C(=O)N[C@H](C(=O)NCC(=O)N[C@@H](CO)C(=O)N[C@@H](CC(N)=O)C(=O)N[C@H](C(=O)N[C@@H](Cc1ccc(O)cc1)C(N)=O)[C@@H](C)O)C(C)C)[C@@H](C)O, also called compound 74)	0.666	37.5	–
K([γGlu-C20 diacid])CNTATCATQRLAAFLRHSSPNFGAIPSSTNVGHNTY-NH2 (disulfide 2-7; N-terminus assumed; SMILES CC[C@H](C)[C@H](NC(=O)[C@H](C)NC(=O)CNC(=O)[C@H](Cc1ccccc1)NC(=O)[C@H](CC(N)=O)NC(=O)[C@@H]1CCCN1C(=O)[C@H](CO)NC(=O)[C@H](CO)NC(=O)[C@H](Cc1c[nH]cn1)NC(=O)[C@H](CCCNC(=N)N)NC(=O)[C@H](CC(C)C)NC(=O)[C@H](Cc1ccccc1)NC(=O)[C@H](C)NC(=O)[C@H](C)NC(=O)[C@H](CC(C)C)NC(=O)[C@H](CCCNC(=N)N)NC(=O)[C@H](CCC(N)=O)NC(=O)[C@@H](NC(=O)[C@H](C)NC(=O)[C@@H]1CSSC[C@H](NC(=O)[C@@H](N)CCCCNC(=O)CC[C@H](NC(=O)CCCCCCCCCCCCCCCCCCC(=O)O)C(=O)O)C(=O)N[C@@H](CC(N)=O)C(=O)N[C@@H]([C@@H](C)O)C(=O)N[C@@H](C)C(=O)N[C@@H]([C@@H](C)O)C(=O)N1)[C@@H](C)O)C(=O)N1CCC[C@H]1C(=O)N[C@@H](CO)C(=O)N[C@@H](CO)C(=O)N[C@H](C(=O)N[C@@H](CC(N)=O)C(=O)N[C@H](C(=O)NCC(=O)N[C@@H](Cc1c[nH]cn1)C(=O)N[C@@H](CC(N)=O)C(=O)N[C@H](C(=O)N[C@@H](Cc1ccc(O)cc1)C(N)=O)[C@@H](C)O)C(C)C)[C@@H](C)O, also called compound 93)	0.118	1.15	9.7
